The test has as its target protein A from Staphylococcus aureus (Staphylococcus aureus) (UniProt P38507). The experiment in a line: fluorescence intensity of the solution left after immobilization (plate reader); solutions used for functionalization with FITC antibody analysed after the immobilization process on substrate with and without protein A; VICTOR3 plate reader; calibration curve to quantify the antibody that remained in solution.

Turning to “CD4 (VIT4)-FITC mouse anti-human antibody (Miltenyi Biotec)”, the percent of the starting antibody solution immobilised is below 60%.

Values taken from article PMC8538552.
